*1 amine or outer side, *2 acyl side, *3 side chain or, on linkers, in order; H or OH if unused. Bridges are numbered along the chain shown (N, C = ends). [ ]: non-standard residue; d: D form. The star is where a group is joined. C20 diacid = O=C(O)CCCCCCCCCCCCCCCCCCC(=O)*; γGlu = O=C(O)[C@H](CCC(=O)[*:2])N[*:1]; Hyp = O=C(O)[C@@H]1C[C@@H](O)CN1; NMeI = CC[C@H](C)[C@H](NC)C(=O)O; Sar = CNCC(=O)O
B1: [19CD]-isoGlu-R-C( )-GTAT-C( )-ATERLAHFLNRSSF-Gly(Me)-A-Ile(Me)-LSSTEVGSFT-Hyp-NH2 (Compd. 33) (peptide)
peptide: {C20 diacid}-[γGlu]RCGTATCATERLAHFLNRSSF[Sar]A[NMeI]LSSTEVGSFT[Hyp]-NH2
modifications: disulfide 3-8
SMILES: CC[C@H](C)[C@@H](C(=O)N[C@@H](CC(C)C)C(=O)N[C@@H](CO)C(=O)N[C@@H](CO)C(=O)N[C@H](C(=O)N[C@@H](CCC(=O)O)C(=O)N[C@H](C(=O)NCC(=O)N[C@@H](CO)C(=O)N[C@@H](Cc1ccccc1)C(=O)N[C@H](C(=O)N1C[C@H](O)C[C@H]1C(N)=O)[C@@H](C)O)C(C)C)[C@@H](C)O)N(C)C(=O)[C@H](C)NC(=O)CN(C)C(=O)[C@H](Cc1ccccc1)NC(=O)[C@H](CO)NC(=O)[C@H](CO)NC(=O)[C@H](CCCNC(=N)N)NC(=O)[C@H](CC(N)=O)NC(=O)[C@H](CC(C)C)NC(=O)[C@H](Cc1ccccc1)NC(=O)[C@H](Cc1c[nH]cn1)NC(=O)[C@H](C)NC(=O)[C@H](CC(C)C)NC(=O)[C@H](CCCNC(=N)N)NC(=O)[C@H](CCC(=O)O)NC(=O)[C@@H](NC(=O)[C@H](C)NC(=O)[C@@H]1CSSC[C@H](NC(=O)[C@H](CCCNC(=N)N)NC(=O)CC[C@H](NC(=O)CCCCCCCCCCCCCCCCCCC(=O)O)C(=O)O)C(=O)NCC(=O)N[C@@H]([C@@H](C)O)C(=O)N[C@@H](C)C(=O)N[C@@H]([C@@H](C)O)C(=O)N1)[C@@H](C)O
B2: [19CD]-isoGlu-R-C( )-GTAT-C( )-ATERLAHFLQRSSF-Gly(Me)-A-Ile(Me)-LSSTEVGSSTP-NH2 (Compd. 34) (peptide)
peptide: {C20 diacid}-[γGlu]RCGTATCATERLAHFLQRSSF[Sar]A[NMeI]LSSTEVGSSTP-NH2
modifications: disulfide 3-8
SMILES: CC[C@H](C)[C@@H](C(=O)N[C@@H](CC(C)C)C(=O)N[C@@H](CO)C(=O)N[C@@H](CO)C(=O)N[C@H](C(=O)N[C@@H](CCC(=O)O)C(=O)N[C@H](C(=O)NCC(=O)N[C@@H](CO)C(=O)N[C@@H](CO)C(=O)N[C@H](C(=O)N1CCC[C@H]1C(N)=O)[C@@H](C)O)C(C)C)[C@@H](C)O)N(C)C(=O)[C@H](C)NC(=O)CN(C)C(=O)[C@H](Cc1ccccc1)NC(=O)[C@H](CO)NC(=O)[C@H](CO)NC(=O)[C@H](CCCNC(=N)N)NC(=O)[C@H](CCC(N)=O)NC(=O)[C@H](CC(C)C)NC(=O)[C@H](Cc1ccccc1)NC(=O)[C@H](Cc1c[nH]cn1)NC(=O)[C@H](C)NC(=O)[C@H](CC(C)C)NC(=O)[C@H](CCCNC(=N)N)NC(=O)[C@H](CCC(=O)O)NC(=O)[C@@H](NC(=O)[C@H](C)NC(=O)[C@@H]1CSSC[C@H](NC(=O)[C@H](CCCNC(=N)N)NC(=O)CC[C@H](NC(=O)CCCCCCCCCCCCCCCCCCC(=O)O)C(=O)O)C(=O)NCC(=O)N[C@@H]([C@@H](C)O)C(=O)N[C@@H](C)C(=O)N[C@@H]([C@@H](C)O)C(=O)N1)[C@@H](C)O
B3: [19CD]-isoGlu-R-C( )-GTAT-C( )-ATERLAHFLQRSSF-Gly(Me)-A-Ile(Me)-LSSTEVGSFT-Hyp-NH2 (Compd. 32) (peptide)
peptide: {C20 diacid}-[γGlu]RCGTATCATERLAHFLQRSSF[Sar]A[NMeI]LSSTEVGSFT[Hyp]-NH2
modifications: disulfide 3-8
SMILES: CC[C@H](C)[C@@H](C(=O)N[C@@H](CC(C)C)C(=O)N[C@@H](CO)C(=O)N[C@@H](CO)C(=O)N[C@H](C(=O)N[C@@H](CCC(=O)O)C(=O)N[C@H](C(=O)NCC(=O)N[C@@H](CO)C(=O)N[C@@H](Cc1ccccc1)C(=O)N[C@H](C(=O)N1C[C@H](O)C[C@H]1C(N)=O)[C@@H](C)O)C(C)C)[C@@H](C)O)N(C)C(=O)[C@H](C)NC(=O)CN(C)C(=O)[C@H](Cc1ccccc1)NC(=O)[C@H](CO)NC(=O)[C@H](CO)NC(=O)[C@H](CCCNC(=N)N)NC(=O)[C@H](CCC(N)=O)NC(=O)[C@H](CC(C)C)NC(=O)[C@H](Cc1ccccc1)NC(=O)[C@H](Cc1c[nH]cn1)NC(=O)[C@H](C)NC(=O)[C@H](CC(C)C)NC(=O)[C@H](CCCNC(=N)N)NC(=O)[C@H](CCC(=O)O)NC(=O)[C@@H](NC(=O)[C@H](C)NC(=O)[C@@H]1CSSC[C@H](NC(=O)[C@H](CCCNC(=N)N)NC(=O)CC[C@H](NC(=O)CCCCCCCCCCCCCCCCCCC(=O)O)C(=O)O)C(=O)NCC(=O)N[C@@H]([C@@H](C)O)C(=O)N[C@@H](C)C(=O)N[C@@H]([C@@H](C)O)C(=O)N1)[C@@H](C)O
B4: [19CD]-isoGlu-R-C( )-GTAT-C( )-ATERLAHFLVRSSF-Gly(Me)-A-Ile(Me)-LSSTEVGSST-Hyp-NH2 (Compd. 31) (peptide)
peptide: {C20 diacid-γGlu}-RCGTATCATERLAHFLVRSSF[Sar]A[NMeI]LSSTEVGSST[Hyp]-NH2
modifications: disulfide 2-7
SMILES: CC[C@H](C)[C@@H](C(=O)N[C@@H](CC(C)C)C(=O)N[C@@H](CO)C(=O)N[C@@H](CO)C(=O)N[C@H](C(=O)N[C@@H](CCC(=O)O)C(=O)N[C@H](C(=O)NCC(=O)N[C@@H](CO)C(=O)N[C@@H](CO)C(=O)N[C@H](C(=O)N1C[C@H](O)C[C@H]1C(N)=O)[C@@H](C)O)C(C)C)[C@@H](C)O)N(C)C(=O)[C@H](C)NC(=O)CN(C)C(=O)[C@H](Cc1ccccc1)NC(=O)[C@H](CO)NC(=O)[C@H](CO)NC(=O)[C@H](CCCNC(=N)N)NC(=O)[C@@H](NC(=O)[C@H](CC(C)C)NC(=O)[C@H](Cc1ccccc1)NC(=O)[C@H](Cc1c[nH]cn1)NC(=O)[C@H](C)NC(=O)[C@H](CC(C)C)NC(=O)[C@H](CCCNC(=N)N)NC(=O)[C@H](CCC(=O)O)NC(=O)[C@@H](NC(=O)[C@H](C)NC(=O)[C@@H]1CSSC[C@H](NC(=O)[C@H](CCCNC(=N)N)NC(=O)CC[C@H](NC(=O)CCCCCCCCCCCCCCCCCCC(=O)O)C(=O)O)C(=O)NCC(=O)N[C@@H]([C@@H](C)O)C(=O)N[C@@H](C)C(=O)N[C@@H]([C@@H](C)O)C(=O)N1)[C@@H](C)O)C(C)C
B5: [19CD]-isoGlu-R-C( )-GTAT-C( )-ATERLAHFLHRSSF-Gly(Me)-A-Ile(Me)-LSSTEVGSST-Hyp-NH2 (Compd. 30) (peptide)
peptide: {C20 diacid}-[γGlu]RCGTATCATERLAHFLHRSSF[Sar]A[NMeI]LSSTEVGSST[Hyp]-NH2
modifications: disulfide 3-8
SMILES: CC[C@H](C)[C@@H](C(=O)N[C@@H](CC(C)C)C(=O)N[C@@H](CO)C(=O)N[C@@H](CO)C(=O)N[C@H](C(=O)N[C@@H](CCC(=O)O)C(=O)N[C@H](C(=O)NCC(=O)N[C@@H](CO)C(=O)N[C@@H](CO)C(=O)N[C@H](C(=O)N1C[C@H](O)C[C@H]1C(N)=O)[C@@H](C)O)C(C)C)[C@@H](C)O)N(C)C(=O)[C@H](C)NC(=O)CN(C)C(=O)[C@H](Cc1ccccc1)NC(=O)[C@H](CO)NC(=O)[C@H](CO)NC(=O)[C@H](CCCNC(=N)N)NC(=O)[C@H](Cc1c[nH]cn1)NC(=O)[C@H](CC(C)C)NC(=O)[C@H](Cc1ccccc1)NC(=O)[C@H](Cc1c[nH]cn1)NC(=O)[C@H](C)NC(=O)[C@H](CC(C)C)NC(=O)[C@H](CCCNC(=N)N)NC(=O)[C@H](CCC(=O)O)NC(=O)[C@@H](NC(=O)[C@H](C)NC(=O)[C@@H]1CSSC[C@H](NC(=O)[C@H](CCCNC(=N)N)NC(=O)CC[C@H](NC(=O)CCCCCCCCCCCCCCCCCCC(=O)O)C(=O)O)C(=O)NCC(=O)N[C@@H]([C@@H](C)O)C(=O)N[C@@H](C)C(=O)N[C@@H]([C@@H](C)O)C(=O)N1)[C@@H](C)O

Biological target: T1, human amylin receptor 3 (hAMYR3), hCTR2 co-expressed with human receptor activity modifying protein 3 (hRAMP3) (human, UniProt P30988 25-474; O60896 24-148)
T1 sequence (looked up) 1: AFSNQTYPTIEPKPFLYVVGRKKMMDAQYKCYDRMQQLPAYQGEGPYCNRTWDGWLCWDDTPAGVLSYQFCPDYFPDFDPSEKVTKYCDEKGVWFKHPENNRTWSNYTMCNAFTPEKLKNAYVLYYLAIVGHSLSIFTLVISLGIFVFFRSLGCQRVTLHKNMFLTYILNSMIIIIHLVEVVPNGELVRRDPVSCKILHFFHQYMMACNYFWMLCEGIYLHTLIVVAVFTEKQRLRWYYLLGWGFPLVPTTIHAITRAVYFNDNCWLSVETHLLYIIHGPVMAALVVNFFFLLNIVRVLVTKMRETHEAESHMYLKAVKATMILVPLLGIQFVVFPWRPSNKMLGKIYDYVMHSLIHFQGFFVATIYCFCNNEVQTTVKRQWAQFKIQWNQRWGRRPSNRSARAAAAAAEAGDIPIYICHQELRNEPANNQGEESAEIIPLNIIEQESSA
T1 sequence (looked up) 2: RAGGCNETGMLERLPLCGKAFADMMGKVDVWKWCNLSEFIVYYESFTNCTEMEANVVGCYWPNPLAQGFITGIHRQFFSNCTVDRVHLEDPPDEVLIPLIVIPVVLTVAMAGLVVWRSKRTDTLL
Assay: cell-based or functional assay

Binder	hAMYR3 EC50 (nM); cAMP induction [nM]
B1	0.15
B2	0.12
B3	0.23
B4	0.29
B5	0.12

Source: US20160272693A1 (ZEALAND PHARMA A S, published 2016)
